Results from the DeepSol protein solubility set.

Test: soluble on expression in E. coli; label from the status in PepcDB or PDB records

| Sequence | soluble on expression in E. coli |
| --- | --- |
| MGSDKIHHHHHHMERIDEILSQLTTEEKVKLVVGVGLPGLFGNPHSRVAGAAGETHPVPRLGIPAFVLADGPAGLRINPTRENDENTYYTTAFPVEIMLASTWNRDLLEEVGKAMGEEVREYGVDVLLAPAMNIHRNPLCGRNFEYYSEDPVLSGEMASAFVKGVQSQGVGACIKHFVANNQETNRMVVDTIVSERALREIYLKGFEIAVKKARPWTVMSAYNKLNGKYCSQNEWLLKKVLREEWGFDGFVMSDWYAGDNPVEQLKAGNDMIMPGKAYQVNTERRDEIEEIMEALKEGKLSEEVLDECVRNILKVLVNAPSFKGYRYSNKPDLESHAEVAYEAGAEGVVLLENNGVLPFDENTHVAVFGTGQIETIKGGTGSGDTHPRYTISILEGIKERNMKFDEELASTYEEYIKKMRETEEYKPRTDSWGTVIKPKLPENFLSEKEIKKAAKKNDVAVVVISRISGEGYDRKPVKGDFYLSDDELELIKTVSKEFHDQGKKVVVLLNIGSPIEVASWRDLVDGILLVWQAGQEMGRIVADVLVGKINPSGKLPTTFPKDYSDVPSWTFPGEPKDNPQRVVYEEDIYVGYRYYDTFGVEPAYEFGYGLSYTKFEYKDLKIAIDGETLRVSYTITNTGDRAGKEVSQVYIKAPKGKIDKPFQELKAFHKTKLLNPGESEEISLEIPLRDLASFDGKEWVVESGEYEVRVGASSRDIRLRDIFLVEGEKRFKP | not soluble |
| MGSDKIHHHHHHMERMSIKYFVNNNSLGPDRNISSVGFEEIPPNTSYPTLNHSAGYYFNPDKGRILTEYQLIYITEGEGVLETRSGGVFTIKRGMIFVLFPGEWHTYYPNYQTGWSHYWIGFCGPEVDSWMTNEYCSKESPVFKVGINDEIVSLFRKAIDVANEEPTLYQRVLSGLVTYLVALMCSIDKNLQVENDDFSSKIDYACVLMKELIDQPVSMQEIAKKAGMGYSLFRKLFKEQKNYAPVQYFQNLKIQKAIELLTTTTIPVKEIAYRLDFESPAYFSARFKKQTGKSPIEYREEFRIK | not soluble |
| MGSDKIHHHHHHMESITLTADLDALAKTSAFITAAAERCGLDERATWQVQLAVDEAVTNVIQHAYDPDQPGDFTLSWQCHDQRFIVTVRDHGRQFDPSTVPVPDITSPLEERQVGGLGIYLITRLMDEVHFEFSPQGGNLLTMVKYLPSDQAEEANEVVVIPINDRIDALTAPRLSKTVNEQISQGARQIVLDFSNVPFLSSSGLRALLLIRKELMTLGGELRLAALQPQVHEVFTITGFTQVFNIHPSVTEARAAFSQRR | not soluble |
| MGSDKIHHHHHHMESTRRIYASPSYEVYGLSRNPFIELASEGIEDIESIHVYQEVDMRISSLISDVIGNRSSITLSIVGPLGMGKTQRLKSIARVIEDRGGKVIYIKVDTTDVLKITRDIFASLRPPKNRTNVFLENLSRKLGFITRLEKMLSSTDEYKSRDIAEMLTRELSKYQYSALLLDELENMRGATEKEKILFFEMLRHFISNMPPGCVFAFASIPEAYEEYSSQFPAFFMRLHYEFKLRPMSYQEIIELVKKRLAKVRIRDTADPLYPFTEDAIKLIHELGKGNPRQILRLLNYVLSEAVKHKFDPINEYVVTTILEEPKSLEEYIARIPSDFKDLVKVIVEKFEGGPVSYIQIAKELKIPGMEAYEKLEHLVSLGFLVGDPRGNYKVPDYVRKFLEEKGE | not soluble |
| MGSDKIHHHHHHMETARHRNTWHIHPDPEALARRLAAAVARMAREAITARGAFHLVVAGGTTPRAAYALLPQLGSDWQCWHLYHGDERCLPPQDPDRNSLMLDTVWLSRVPIPTRQIHHIPAERGADVAARDYAAVLPPHAFDLVLLGVGEDGHTASLFPGHDWGMAKNGPATIAVHDAAKAPPQRVSLSGWRLQYTREMFFMAAGGGKRSALTAWRQGEPIPAATVGTTADIWLDNTAWPEVVPGTI | not soluble |
| MGSDKIHHHHHHMETLRILHTNDLHSHFEHFPKIRRYLKQVQETAAADQVLTFDAGDFMDRSHPLSDATEGQANIRLMNDFHYDAITIGNNEGISNPHAVLERLFDHANFPVLLSNLREEDESWPAWANDYKIIKTKKGTRLALVGLTAAYPMTYGPNHWQIKMLGETMDRVLPEIAGQYDCLILLTHVGLRMDQWLAKHYPEIDLIVGGHSHTLLEKGVKEGRTWITQTDKWGNYVGDISLEIGDDHKIISIKPTTVPVADLPSQAGDEAEIAALYEEGQKMLQSRHVADLPEKFKDDKLAAIDVSLEAIADFAGTDLAMLSTGLFLTPFKGGLINQFDLQHALPHPMHVVRTTLLGRDLWRLVMEVEKNRHFLENYPLVGMSFRGKIFGQVYYRGIKYDPMTRNVFVNGQLLDPAEEYRIAVLDHYVLIPFFPTLAIVGENEFLFPQFLREVVGDYLGRKYPMKKEGE | not soluble |
| MGSDKIHHHHHHMEVAAVDSLEALYKMVAKLYRRLSASARKRLLEGVELAAEKGDPALAYHRLSTLARDYYGDSLPYASDGYYKTYKHTRCVGLPEPTKVSGVDVLEAIRRRRSRRSFSRRPLTLTEVSTILFHVAGITGLAWWGGPKRPYPSAGALQPVEAYLVVERVEGLKPGLYHYNPSGHCLEMLREGKLLGRLADVSLGQDHVAEAAAALVLTAVYTRTGSKYGHRSYRYVHWDTGFAGENVYLVCEALGLATVAVGAFYDDEMCGFLEIDCPWEMPMLVFPVGARG | not soluble |
| MGSDKIHHHHHHMEVLYRKYRPKTFSEVVNQDHVKKAIIGAIQKNSVAHGYIFAGPRGTGKTTLARILAKSLNCENRKGVEPCNSCRACREIDEGTFMDVIELDAASNRGIDEIRRIRDAVGYRPMEGKYKVYIIDEVHMLTKEAFNALLKTLEEPPSHVVFVLATTNLEKVPPTIISRCQVFEFRNIPDELIEKRLQEVAEAEGIEIDREALSFIAKRASGGLRDALTMLEQVWKFSEGKIDLETVHRALGLIPIQVVRDYVNAIFSGDVKRVFTVLDDVYYSGKDYEVLIQEAVEDLVEDLERERGVYQVSANDIVQVSRQLLNLLREIKFAEEKRLVCKVGSAYIATRFSTTNVQENDVREKNDNSNVQQKEEKKETVKAKEEKQEDSEFEKRFKELMEELKEKGDLSIFVALSLSEVQFDGEKVIISFDSSKAMHYELMKKKLPELENIFSRKLGKKVEVELRLMGKEETIEKVSQKILRLFEQEG | not soluble |
| MGSDKIHHHHHHMEWEVFEYRTKGIMAEIEAGRLKIVSSYVDKSFSARVILKGRVGFASASTRDEALSLAEKIARISEDELEDFPNEKPASVKGIYDKRVEEADSELIMEEFERLRSAVEKANIASATIEHAVEEVRITNSFGLDSREKSTSSSMIVEAVFEGGSAYEVCGSRSIELDIEGAAKKAEELAVDSAKAIKIEGGTYDVILQPIAVHQLLSNTLYPSLSAENVEKGRSVIRLGDEFGRITVIDDPTVEGGLMSCGFDDEGVSARKTFLIDNGVVRSYYTDWKHSKKYGVTGNGFRLEESSFPAPMVSNVVLEVDDADDDNCLTIHSLIGSHTANPVSGDFSLECNNAYFGEKAVKGAMIYGNVFELLKKVEGGLGELRQIENTVTKSLRFRSVRVI | not soluble |
| MGSDKIHHHHHHMEYIVRTHKIGIYEKALPKNLSWQDRLSIAKACGFDFVEISIDETDERLARLDWSKAERIELVTAIISTGITIPSMCLSGHRRFPFGSRDEATRQKAFEIMKKAIQLAVDLGIRTIQLAGYDVYYEEQDEGTIQRFQQGLEWAVKLAASHQVTIAVEIMDTQFISSISRWKKWDNIIRSPWFTVYPDLGNLSAWNENVSEELKLGIDKISAIHLKDTYKVTTTSKGQFRDVPFGAGCVDFVQCFRILSELNYRGAFLVEMWTEKAEEPITEIINARRWIEQKMKEGGFQC | not soluble |
| MGSDKIHHHHHHMFEEIAYMILADGNEKSRFEANAYLRAARSLRSITEDVEDIYNRGGIEALTSVEGIGKKIASYIEEYIKTGRIKRYDDLKIRYPVDFRDLSRVQGLGPRKIVSLYKYAGVKNIDDLKAALADHRIASIPGFGEKSEKEIAENIQIAEMSFRRIPLPQGYRTAMEIADEIERAAGTVRVSVAGSIRRMRDTVGDIDLLCVTSDPPRAIAAFTGSKHCQRVVSSGEKKVTIATDAGVTCDLRIIDKGSFGSALQYFTGSKDHNIKLRKIAIDRGLKLNEYGLFRGNSNLVENQGEEKIYAELGMQYIPPELREDRGEIDRAISMTLPELVEAGDIRGDLYISYEFIRKYGADVLKKMERLQYFGVVLGSPEEKEGIKSVMNDGRIFLGIELTSKTYAEDAGEFDFTVLDLSGFPDEASARGAIESVKPTFIRNVTGRTFSSGRKMDPANIFEAAAKSGSAVMITASNDAFDPVAEDIMPHREGLMFALASFAQRPDDLGDMTFGIGIARRAWISKDRIINTMDYEKIAKIMRRP | not soluble |
| MGSDKIHHHHHHMFEGPIIDARIKSIASGFRAVSVYVDATSAEEGRFDPRLLGEACDCALADGPAWAEAHLASWSDAYAVFGAKPNRTPCSAQALRKRVLKDGTLSTINPIVDLYNAISLKYAVPVGGENFDAYVGRPHLTVADGSETFDTMVNGEAVNDPPLPGEVIWRDDIGVTCRRWNWRQGTRTRLKTLTGRMWFVLEALETMPDDALAEATDAMVGGLNALMPGCKIASQEIAIAG | not soluble |
| MGSDKIHHHHHHMFENILWKMVKKRLIPKRKISRVHRSRKGVKRVVCVAFPLDQMFKSADDFIDALMEILQEDLPFVDLLIFPRLTGNLLAGVSPIRIENFEKLDPFYTDLLRYISKGLDVPIVAPGVETFRTSPDVLVIENGEVLHRYTLRERFAVADFGEWYAAVLRKEDTLSSKALRPLVEKNVFAFIHFDLETEENDWWKEKKGLWARSQSLEVFGIKVSPRGTFLGKTYRGKSYVSAPIPLTPNLTGFLRQDCGVKMSVDLELDLLKGKRHRIDTVKHILFRG | not soluble |
| MGSDKIHHHHHHMFIVSKQTTTEYGTGCFAAPSSSCQSEYNPKVENDAVAHNSISGLRGSLRRNSSNLSSQLTALQETCLADAAQIEINCSTSNAKQAFFVKIEVPTGEQGVLHFSPSSGDISQVFTPIQNGCGHGVWKFVVCTMENGSEIAHSQVSRNLDGVGILFFNVYEDLEIRLAQQEFLHISHCHTRRH | not soluble |
| MGSDKIHHHHHHMFKGIIAALWDMDSIGEIEPDVVFLLKSDILNLKFHLKILKDRGKTVFVDMDFVNGLGEGEEAILFVKKAGADGIITIKPKNYVVAKKNGIPAVLRFFALDSKAVERGIEQIETLGVDVVEVLPGAVAPKVARKIPGRTVIAAGLVETEEEAREILKHVSAISTSSRILWKMKFLP | soluble |
| MGSDKIHHHHHHMFQYFPTNYVWSLSAMIALTHGGQIGEVDQMCAPLVDAARAGNDPGTLAFFNAWKSGADKLAELAEEDKSGGRLLSAGEKLGRAALYYIIAERMQAHDFDGRLALYKHSLDVFLEGVRLARENCERIEIPYQDRHISGLYVRAVGVQGRAPVVVVMNGLDSTKEMLYRSCITSYLSRRGVAVLLVDQPGTGEALRLQKLHAIPQTEIWASKIVDYLQARTDIDPVRIGALGVSLGGYYAPRAVAFEPRFAAGAVWGANHDWREVQKRRLAREGENPVPHYWKHVEWVFGASDLDDFMQCAEAMHLNGVLDRIKVPFLVTHGENDRQIPVQYAHQTYEQLANSPRRELKIFTAREGGVEHSSLDNPTNAGSYIADWLAEQLHGTTA | not soluble |
| MGSDKIHHHHHHMFSARLKAIAQPVLADIENHPFVRGIQAGAVPAAALMVYVEQDTCFLDAFAKVYAGALSKCTTKDQMRFFEEQIRYTLNDEAGAHQILCDIAGQKLSDHQHAKQRPITYLYNEHLFNALRTGDLIDLIAAMLPCPWTYTEISQQIVDGAAPDNPFLPWIEFYQPQPGQIDGSMVKTLFGMVDELAIGLSEERQHEIEQRFLRSCELEYEFWEQAYYQKDWKYKN | not soluble |
| MGSDKIHHHHHHMGAVVVKDLRKRIGKKEILKGISFEIEEGEIFGLIGPNGAGKTTTLRIISTLIKPSSGIVTVFGKNVVEEPHEVRKLISYLPEEAGAYRNMQGIEYLRFVAGFYASSSSEIEEMVERATEIAGLGEKIKDRVSTYSKGMVRKLLIARALMVNPRLAILDEPTSGLDVLNAREVRKILKQASQEGLTILVSSHNMLEVEFLCDRIALIHNGTIVETGTVEELKERYKAQNIEEVFEEVVKCSENF | soluble |
